Reference: IntAct's records for PubMed 17937919

Experiments:
eed_mouse Eed = eed_mouse Eed (UniProt Q921E6)
Sequence of eed_mouse Eed (Q921E6 whole entry, looked up): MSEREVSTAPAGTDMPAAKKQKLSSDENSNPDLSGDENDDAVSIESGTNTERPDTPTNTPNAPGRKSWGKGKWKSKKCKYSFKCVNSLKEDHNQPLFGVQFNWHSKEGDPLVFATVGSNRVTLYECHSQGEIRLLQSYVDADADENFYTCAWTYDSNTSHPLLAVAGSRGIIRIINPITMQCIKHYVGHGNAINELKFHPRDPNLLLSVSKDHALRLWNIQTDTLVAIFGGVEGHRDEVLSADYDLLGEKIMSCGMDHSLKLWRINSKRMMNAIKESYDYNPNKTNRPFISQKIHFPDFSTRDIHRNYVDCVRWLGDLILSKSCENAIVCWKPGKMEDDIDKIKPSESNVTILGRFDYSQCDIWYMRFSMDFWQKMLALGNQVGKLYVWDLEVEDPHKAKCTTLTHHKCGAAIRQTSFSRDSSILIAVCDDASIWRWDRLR

Sequence of Ezh2, Q61188-1 (Q61188 whole entry): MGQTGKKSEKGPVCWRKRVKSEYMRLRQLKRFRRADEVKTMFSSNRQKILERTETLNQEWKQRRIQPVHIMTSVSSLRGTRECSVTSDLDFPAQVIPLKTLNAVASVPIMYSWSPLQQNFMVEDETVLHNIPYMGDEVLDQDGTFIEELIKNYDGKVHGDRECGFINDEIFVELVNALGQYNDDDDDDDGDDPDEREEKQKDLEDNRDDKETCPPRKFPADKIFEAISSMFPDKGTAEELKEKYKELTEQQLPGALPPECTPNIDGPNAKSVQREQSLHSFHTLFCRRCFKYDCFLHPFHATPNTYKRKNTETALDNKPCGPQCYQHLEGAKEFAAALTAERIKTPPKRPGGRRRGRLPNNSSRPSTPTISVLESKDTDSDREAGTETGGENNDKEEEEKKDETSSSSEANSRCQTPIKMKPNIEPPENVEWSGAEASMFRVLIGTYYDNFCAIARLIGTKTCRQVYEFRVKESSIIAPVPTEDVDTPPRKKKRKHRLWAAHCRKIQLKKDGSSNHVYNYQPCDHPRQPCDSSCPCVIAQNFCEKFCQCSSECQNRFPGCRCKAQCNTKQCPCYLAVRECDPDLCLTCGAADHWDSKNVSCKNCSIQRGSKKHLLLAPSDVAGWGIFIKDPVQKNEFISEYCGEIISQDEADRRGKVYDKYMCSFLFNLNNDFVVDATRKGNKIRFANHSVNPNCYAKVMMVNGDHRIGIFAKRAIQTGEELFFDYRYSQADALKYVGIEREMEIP
Sequence of Polycomb protein EED (Mus musculus), Q921E6 L246E (Q921E6 whole entry L246E): as the sequence (Q921E6 whole entry, looked up) above, with L246E counted along it

Row | effect of a mutation on the interaction (eed_mouse Eed) | effect of a mutation on the interaction (Ezh2, Q61188-1) | Substance
1 | disrupting interaction | – | Histone-lysine N-methyltransferase EZH2 (Mus musculus), Q61188-1 P67D
2 | disrupting interaction | – | Histone-lysine N-methyltransferase EZH2 (Mus musculus), Q61188-1 N45A
3 | disrupting interaction | – | Histone-lysine N-methyltransferase EZH2 (Mus musculus), Q61188-1 F42D
4 | disrupting interaction | – | Histone-lysine N-methyltransferase EZH2 (Mus musculus), Q61188-1 I49E
5 | disrupting interaction | – | Histone-lysine N-methyltransferase EZH2 (Mus musculus), Q61188-1 L56E
6 | – | disrupting interaction | Polycomb protein EED (Mus musculus), Q921E6 L246E
